The results in this text go back to patent publication US7645735B2, “Anti-angiogenic peptides for treating or preventing endometriosis” (Children's Medical Center Corporation, priority 2003, dated 2010).

Series [1] relates to human microvascular endothelial cells (HMVECs). Kind of series: VEGF-induced migration of HMVECs, modified Boyden chamber. The series is classed as cell-based. Conditions: 100 ng/ml, VEGF 5 ng/ml. As for the experimental part: Endostatin peptides were tested for anti-endothelial cell migration activity. Inhibition of VEGF-induced migration of human microvascular endothelial cells (HMVECs) was determined using several doses of endostatin peptides (FIG. 5). Human peptides were used because the cells were of human origin and the migration response of the HMVECs was assayed using a modified Boyden chamber. VEGF (5 ng/ml) was used a chemotactic agent and cells were challenged with human endostatin (Entremed; EM-ES), human Fc-Endostatin (nFcES), human P1 (hP1), human P2 (hP2), human P6 (hP6), and human P1-H1/3A (hP1-H1/3A). Total migration per membrane was quantified from the capture images using Scion Image Software (National Institutes of Health) and the unpaired Student T test was used for statistical analysis. […] No significant differences in inhibition between these concentrations were observed. At higher and lower concentrations less or no inhibition was observed. At 500 ng/ml of hP1 no inhibition was observed. Thus, similar to full-length endostatin, there is a U-shaped response to hP1 inhibition of EC migration.
The motility response of HMVEC-d cells was assayed using a modified Boyden chamber. Cells were plated in T75-cm2 flasks at 0.5×10^6 cells per flask and allowed to grow for 48 h (˜70% confluent) prior to the migration assay. To facilitate cell adhesion, the upper membrane of a transwell ([…]; Costar) was coated with fibronectin ([…]; Becton Dickinson, Bedford, Mass.) for 1 h at 37° C. Coated membranes were rinsed with PBS and allowed to air dry immediately before use. Cells were detached by trypsinization, treated with trypsinization neutralization solution (Clonetics), and resuspended at a final concentration of 1×10^6 cells/ml in serum-free endothelial basal medium (EBM; Clonetics) containing 0.1% BSA. Cells (200,000 in 0.2 ml) were then treated with 0.2 ml of EBM/BSA containing endostatin or peptides at the indicated concentrations. Cells were incubated for 20 min. at 37° C. with occasional shaking. Cells (50,000 in 100 μl) were added to the upper chamber of the transwell. EBM or EBM supplemented with VEGF (5 ng/ml) was added to the lower chamber and cells were allowed to migrate toward the bottom chamber for 4 h in a humidified incubator containing 5% CO2. Transwell filters were rinsed once with PBS and fixed and stained using a Diff-Quik staining kit (Baxter) following the manufacturer's protocol. Non-migrated cells were removed from the upper chamber with a cotton swab. Stained filters were cut out of the chamber and mounted onto slides using Permount (Fisher). The number of migrated cells was measured using microscopy (three fields from each membrane were captured using a 40× objective), and images were captured with a CCD camera using SPOT software. Total migration per membrane was quantified from the captured images using Scion Image software (National Institutes of Health). All experiments were run in triplicate. The unpaired Student t-test was used for statistical analysis.

Series [2] has as its system human umbilical vein endothelial cells (HUVEC). The experiment in a line: VEGF stimulated migration of HUVEC, modified Boyden chambers. Conditions: FIG. 13. Format: cell-based. As for the experimental part: Cell migration assays were performed using modified Boyden chambers (6.5-mm diameter, 10-μm thickness, 8-μm pores, Transwell-Costar Corp., Cambridge, Mass.) coated with 10 μg/ml fibronectin in PBS overnight at 4° C. and rinsed with PBS. Subconfluent cells were trypsinized (0.01% trypsin/5 mM EDTA), neutralized with trypsin neutralization solution (Cascade Biologics Inc., Portland, Oreg.), washed, and resuspended in endothelial basal medium (EBM; Clonetics) with 0.1% BSA in the presence or absence of human endostatin (40, 200, 1000 ng/ml). In a second experiment we added either 600 ng/ml human endostatin or mP-1 at various doses (60, 200, 600 ng/ml). Cells were maintained in suspension for 30 min, added to the top of each migration chamber and allowed to migrate for 4 h in the presence or absence of VEGF (5 ng/ml) in lower chamber. Adherent cells were fixed and stained using the Hema-3 Stain System (Fisher Diagnostics, Middletown, Va.), following manufacturer's instructions. Non-migratory cells were removed with a cotton swab, and the number of migratory cells per membrane was captured using bright field microscopy connected to a Spot digital camera (Diagnostic Instruments, Sterling Heights, Mich.). Migrated cells from the captured image were counted using NIH image software. […]

The next series deals with Female SCID mice. The experiment in a line: Fertility, pregnancy and offspring in tumor-bearing female SCID mice.

Where “and” joins values, the source holds several entries; their conditions need not be identical. Equal entries are not always repeated.

Description for Female SCID mice: Female SCID mice were injected with human pancreatic tumor cells subcutaneously. When tumors reached a volume of approximately 100 mm^3 endostatin or placebo treatment was initiated and continued until the end of the study. After three days, females were mated.
Human BxPC-3 cells were grown in cells culture as described above. After washing with sterile PBS, cells were trypsinized and briefly re-suspended in RPMI 1640 medium containing 10% fetal calf serum (FCS) and 1% glutamine penicillin streptomycin (GPS) solution. After centrifuging, the cell concentration was adjusted to 50×10^6 cells/ml in additive-free RPMI 1640 medium and kept on ice. Female SCID mice were shaved on the dorsal side and the naked skin was cleaned with ethanol prior to injection. A suspension of 5×10^6 cells/ml in 100 μl was then injected subcutaneously into the dorsa of these mice at about one centimetre left of the midline.
Mice were weighed and tumors were measured every 7 days in two diameters using a dial-caliper. Tumor volumes were calculated using the formula a^2×b×0.52, while a being the shorter and b being the longer diameter. When tumors had reached a volume of approximately 100 mm^2 mice were divided into four groups.
During the first experiment, one group received endostatin (20 mg/kg; n=8) or vehicle (n=8) via subcutaneous osmotic pumps (Durect Corp., Cupertino, Calif.). Pumps were inserted via a small incision and placed into a subcutaneous pocket on the right lateral aspect of the animals' dorsa. The pumps were changed every week for a total of four weeks.
The other group received daily subcutaneous injections of endostatin (100 mg/kg, n=5) or vehicle (n=5) for the same period.
During a second study we repeated the experiment with endostatin in subcutaneous pumps. The other group in this series received the murine N-terminal fragment of endostatin (mP-1) at a dose of 2.5 mg/kg twice daily or PBS (n=5 each).
Three days after initiation of treatment female mice were added to a cage containing a male SCID mouse in a 1:1 ratio. All males had been housed separately three days prior to encountering the females and female bedding had been added to the male cages to enhance the males' libido.
For the following seven days every female was checked for a vaginal mucous plug as a sign of mating. These exams were performed during the early morning hours to optimize the results. Once a mucous plug had been noticed, mating was considered ‘successful’, and the female was not further examined in order to minimize iatrogenic stress.
Over the course of pregnancy the following parameters were assessed: ‘Mating Time’ describing the time between male encounter and the occurrence of a mucous plug; ‘Pregnancy Rate’, measured by ultrasound 15 days after the mucous plug was observed. The number of viable fetus was counted during this procedure; ‘Length of Pregnancy’, as measured from the time of successful mating to delivery; ‘Number of Total and Viable Litter’, counted on the day of birth; ‘Weight of Individual Pup’, by weighing the entire litter on the day of birth and calculating the mean weight.

B1: human endostatin (EntreMed): recombinant human endostatin, gift from EntreMed Corporation (protein, listed as Homo sapiens)
chain: HSHRDFQPVLHLVALNSPLSGGMRGIRGADFQCFQQARAVGLAGTFRAFLSSRLQDLYSIVRRADRAAVPIVNLKDELLFPSWEALFSGSEGPLKPGARIFSFNGKDVLTHPTWPQKSVWHGSDPNGRRLTESYCETWRTEAPSATGQAYSLLGGRLLGQSAASCHHAYIVLCIENSFMTASK
Regarding B1, the “inhibition of EC migration” value in series [1] is “not at 100 ng/ml”. For the same molecule, the “migration of HUVEC” value in series [2] is recorded as “inhibit migration”. For the same molecule, the “mean length of pregnancy” value with Female SCID mice (endostatin pumps, two experiments) was 20.6 ± 1.2 days and 20.75 ± 2 days. In addition, the “pregnancy rate with live births” value in the series with Female SCID mice (injection group) was determined as 60%. The “litter size per delivery” value stood at 5±1 in the series with Female SCID mice (injection studies, PBS 4.2±2.4) and 5±1.8 in the series on Female SCID mice (pump group, PBS 4.6±1.7). In the series on Female SCID mice (offspring of treated mice), the “effect on the offspring” value is given as “did not see any negative effect on the offspring”. Besides, in the series on Female SCID mice (pump groups, PBS 1.4), the “mean weight of pups on the day of delivery” value turned out to be 1.51 g. Also, the mating time in the series on Female SCID mice (s.c. injections (endostatin 100 mg/kg daily; mP-1 2.5 mg/kg twice daily), PBS 1.9±0.9) was found to be 2.8 ± 1.5 days; in the series with Female SCID mice (s.c. osmotic pumps (endostatin 20 mg/kg), PBS 2.0±1), 2.6 ± 1.4 days.
